Results reported in article PMC7641318.

Test system: T1, hADAR2-R2D (Fig. 2C, Fig. S4, Table S4) E488Q (human), P78563-2
T1 sequence: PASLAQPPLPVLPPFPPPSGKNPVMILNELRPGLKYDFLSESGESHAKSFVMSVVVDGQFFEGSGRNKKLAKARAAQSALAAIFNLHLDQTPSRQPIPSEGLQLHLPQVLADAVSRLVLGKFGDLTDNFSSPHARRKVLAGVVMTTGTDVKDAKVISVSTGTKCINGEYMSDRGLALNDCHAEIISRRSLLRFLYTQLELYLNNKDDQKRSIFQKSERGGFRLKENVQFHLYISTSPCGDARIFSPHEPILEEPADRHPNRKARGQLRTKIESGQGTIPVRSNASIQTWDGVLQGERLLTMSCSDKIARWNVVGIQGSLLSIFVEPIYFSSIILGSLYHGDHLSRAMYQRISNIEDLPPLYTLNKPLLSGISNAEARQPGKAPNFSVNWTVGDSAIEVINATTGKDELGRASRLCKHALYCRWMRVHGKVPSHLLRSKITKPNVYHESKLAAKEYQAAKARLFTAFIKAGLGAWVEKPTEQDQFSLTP
Assay: EMSA
Conditions: EMSA: 20 mM Tris-HCl pH 7.0, 3.5% glycerol, 0.5% DTT, 60 mM KCl, 20 mM NaCl, 0.1 mM BME, 1.5 mM EDTA, 0.003% NP-40, 160 U/ml RNasin, 100 ug/ml BSA, 1 ug/ml …

[1] = N = 8-azanebularine at top position 13

GCUCGCGAUGCUNGAGGGCUCUG / CAGAGCCCCCCAGCAUCGCGAGC [hGLI1-23 8AN]
Kd [1]: 2.67 nM

GCAUAGCUCGCGAUGCUNGAGGGCUCUG / CAGAGCCCCCCAGCAUCGCGAGCUAUGC [hGLI1-28-5' 8AN (5' extended)]
Kd (N = 8-azanebularine at top position 18): 1.31 nM

GCUCGCGAUGCUNGAGGGCUCUGAUAGC / GCUAUCAGAGCCCCCCAGCAUCGCGAGC [hGLI1-28-3' 8AN (3' extended)]
Kd [1]: 1.79 nM
